From patent US20230384326A1 (CANON MEDICAL SYSTEMS, published 2023) come the findings set out here.

Test [1] deals with T1, mCRP (99) peptide (human).
T1 peptide: EILFEVPEVTC
Description: solid phase peptide ELISA. As for the experimental part: (§1) Epitope analysis was performed by the following procedure. [0200] (a) Peptides were immobilized on a plate by standing at 50 ng/well (50 μL/well) for 16 hours at 4° C. […] (b) Solid phase peptides were washed twice with Dulbecco's PBS (D-PBS) (200 μL/well). […] (c) Blocking was performed by adding 200 μL of D-PBS containing 0.1% BSA and 0.05% NaN₃ to each well and leaving it at 4° C. overnight. […] (d) Each well was washed twice with the washing buffer. [0204] (e) The antibody was diluted to 1 μg/mL with the dilution buffer and the diluted solution was added to each well (50 μL/well) and left at 37° C. for 30 minutes. […] (f) Each well was washed four or more times with the washing buffer. […] (g) Anti-mouse IgG (γ-specific)-HRP, a labeled antibody, was added to each well (50 μL/well) and left at 37° C. for 30 minutes. [0207] (h) Each well was washed four or more times with the washing buffer. […] (i) A chromogenic reaction was started by adding a substrate solution (400 μg/mL) to each well (100 μL/well), and the reaction was allowed to proceed for 15 minutes at room temperature in the dark. [0209] (j) After 15 minutes, the reaction was stopped by addition of 1 mol/L sulfuric acid (100 μL/well), and absorbance (490 nm) was measured.
In the above (e), the same result was obtained even when the antibody concentration added to each well was changed to 5 μg/mL. […]

Another test concerns the target T2, mCRP (31-60) peptide (human).
T2 peptide: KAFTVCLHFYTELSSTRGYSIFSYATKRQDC
Briefly: solid phase peptide ELISA (part 2).

The next test has as its target T3, mCRP (61-90) peptide (human).
T3 peptide: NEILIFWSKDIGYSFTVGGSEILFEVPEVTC
Description: solid phase peptide ELISA (part 2).

The next test deals with T4, mCRP (121-150) peptide (human).
T4 peptide: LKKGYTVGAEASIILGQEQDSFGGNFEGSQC
Description: solid phase peptide ELISA (part 2).

Another test has as its target T5, mCRP (151-180) peptide (human).
T5 peptide: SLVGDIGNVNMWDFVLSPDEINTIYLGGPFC
Briefly: solid phase peptide ELISA (part 2).

Another test has as its target T6, mCRP (181-206) peptide (human).
T6 peptide: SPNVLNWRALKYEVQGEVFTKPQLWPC
Description: solid phase peptide ELISA (part 2).

The next test has as its target T7, mCRP (19) peptide (human).
T7 peptide: QTDMSRKAFVC
Description: solid phase peptide ELISA, antibody 1 ug/mL. As for the experimental part:
as §1
(§2) In the above (e), the same result was obtained even when the antibody concentration added to each well was changed to 5 μg/mL. […] Accordingly, it is believed that there are not only one kind of epitope but also a plurality of kinds of epitopes of human denatured CRP-specific monoclonal antibodies.

The target of another test is T8, mCRP (29) peptide (human).
T8 peptide: FPKESDTSYVC
Briefly: solid phase peptide ELISA, antibody 1 ug/mL. As for the experimental part: as §1, §2

Another test deals with T9, mCRP (39) peptide (human).
T9 peptide: SLKAPLTKPLC
Description: solid phase peptide ELISA, antibody 1 ug/mL. As for the experimental part: as §1, §2

The target of a further test is T10, mCRP (49) peptide (human).
T10 peptide: KAFTVCLHFYC
Description: solid phase peptide ELISA, antibody 1 ug/mL. As for the experimental part: as §1, §2

Another test concerns the target T11, mCRP (59) peptide (human).
T11 peptide: TELSSTRGYSC
Description: solid phase peptide ELISA, antibody 1 ug/mL. As for the experimental part: as §1, §2

The next test concerns the target T12, mCRP (69) peptide (human).
T12 peptide: IFSYATKRQDC
Description: solid phase peptide ELISA, antibody 1 ug/mL. As for the experimental part:
as §1, §2

In another test the target is T13, mCRP (79) peptide (human).
T13 peptide: NEILIFWSKDC
Description: solid phase peptide ELISA, antibody 1 ug/mL. As for the experimental part:
as §1, §2

The target of a further test is T14, mCRP (89) peptide (human).
T14 peptide: IGYSFTVGGSC
Briefly: solid phase peptide ELISA, antibody 1 ug/mL. The method, then:
as §1, §2

The target of test [2] is T1, mCRP (99) peptide. Description: solid phase peptide ELISA, antibody 1 ug/mL. The method, then:
as §1, §2

Another test concerns the target T15, mCRP (109) peptide (human).
T15 peptide: VAPVHICTSWC
Description: solid phase peptide ELISA, antibody 1 ug/mL. As for the experimental part:
as §1, §2

The next test deals with T16, mCRP (119) peptide (human).
T16 peptide: ESASGIVEFWC
Briefly: solid phase peptide ELISA, antibody 1 ug/mL. The method, then:
as §1, §2

A further test addresses T17, mCRP (129) peptide (human).
T17 peptide: VDGKPRVRKSC
Description: solid phase peptide ELISA, antibody 1 ug/mL. As for the experimental part:
as §1, §2

A further test concerns the target T18, mCRP (139) peptide (human).
T18 peptide: LKKGYTVGAEC
Briefly: solid phase peptide ELISA, antibody 1 ug/mL. The method, then:
as §1, §2

In the next test the target is T19, mCRP (149) peptide (human).
T19 peptide: ASIILGQEQDC
Briefly: solid phase peptide ELISA, antibody 1 ug/mL. The method, then:
as §1, §2

The target of another test is T20, mCRP (159) peptide (human).
T20 peptide: SFGGNFEGSQC
Briefly: solid phase peptide ELISA, antibody 1 ug/mL. As for the experimental part:
as §1, §2

In a further test the target is T21, mCRP (169) peptide (human).
T21 peptide: SLVGDIGNVNC
Description: solid phase peptide ELISA, antibody 1 ug/mL. As for the experimental part:
as §1, §2

In a further test the target is T22, mCRP (179) peptide (human).
T22 peptide: MWDFVLSPDEC
Briefly: solid phase peptide ELISA, antibody 1 ug/mL. The method, then:
as §1, §2

In a further test the target is T23, mCRP (189) peptide (human).
T23 peptide: INTIYLGGPFC
Description: solid phase peptide ELISA, antibody 1 ug/mL. The method, then: as §1, §2

A further test deals with T24, mCRP (199) peptide (human).
T24 peptide: SPNVLNWRALC
Briefly: solid phase peptide ELISA, antibody 1 ug/mL. The method, then:
as §1, §2

The target in another test is T25, mCRP (209) peptide (human).
T25 peptide: KYEVQGEVFTKPQLWPC
Description: solid phase peptide ELISA, antibody 1 ug/mL. As for the experimental part:
as §1, §2

B1: human denatured CRP-specific antibody produced from hybridoma mCRP-12C (antibody, mouse IgG1, V domains shown)
VH: EVQLQQSGAELVKPGASVKLSCTASGFNIKDYYIHWVKQRTDQGLEWIGRIDPEDDETKYAPKFQGKATIITDTSSNTAYLHLSSLTSADTAVYYCASRIYYYDIKGLFDYWGQGTTLTVSS
VL: DIVMTQAPSSLTVTAGEKVTMTCKSSQSLLNSGNQKNYLTWSQQKPGQPPKLLIYWASTRESGVPDRFTGSGSGTDFTLTISSVQAEDLAVYYCQNDYNYPITFGAGTKLELKR
notes: Mouse IgG1, kappa; also called 12C antibody
Consider B1, for which, in the test with mCRP (99) peptide [1], the binding result was “no binding”.

B2: human denatured CRP-specific antibody produced from hybridoma mCRP-18A (antibody, mouse IgG2a)
heavy: EVQLQQSGAEFVKPGTSVKLSCTASGFNIKDYYIHWVKQRTEQGLEWIGRIDPEDGETKYAPKFQGKATITADASSNTAYLQLSSLTSEDTAVYYCVSRMYYYGSQGLFDFWGQGTTLTVSSAKTTAPSVYPLAPVCGGTTGSSVTLGCLVKGYFPEPVTLTWNSGSLSSGVHTFPALLQSGLYTLSSSVTVTSNTWPSQTITCNVAHPASSTKVDKKIEPRVPITQNPCPPLKECPPCAAPDLLGGPSVFIFPPKIKDVLMISLSPMVTCVVVDVSEDDPDVQISWFVNNVEVHTAQTQTHREDYNSTLRVVSALPIQHQDWMSGKEFKCKVNNRALPSPIEKTISKPRGPVRAPQVYVLPPPAEEMTKKEFSLTCMITGFLPAEIAVDWTSNGRTEQNYKNTATVLDSDGSYFMYSKLRVQKSTWERGSLFACSVVHEGLHNHLTTKTISHSPGK
light: DIVMTQSPSSLTVTAGEKVTMGCKSSQSLLNSANQKNYLTWYRQKPGQPPKLLIYWASTRESGVPDRFTGSGSGTDFTLTISSVQAEDLAVYYCQNDYNYPLTCGAGTKLDLKRADAAPTVSIFPPSSEQLTSGGASVVCFLNNFYPKDINVKWKIDGSERQNGVLNSWTDQDSKDSTYSMSSTLTLTKDEYERHNSYTCEATHKTSTSPIVKSFNRNEC
notes: Mouse IgG2a, kappa; also called 18A antibody
Turning to B2, in the test with mCRP (99) peptide [1], the binding result is “no binding”.

B3: human denatured CRP-specific antibody produced from hybridoma mCRP-3C (antibody, mouse IgG2b, V domains shown)
VH: QVQLQQSGAELVRPGASVKLSCKALDYTFTDYEMHWVKQTPVHGLEWIGAIHPGRGGTAYNQKFKGKATLTADKSSSTAYMELSSLTSEDSGVYYCTSYHGGYWGQGTTLTVSS
VL: DVVMTQTPLSLPVSLGDQASISCRSSQSLVHSNENTYLLWYLQKPGQSPKLLIYKVSNRFSGVPDRFSGSGSGTDFTLKISRVEAEDLGVYFCSQTTHVPWTFGGGTKLEIKR
notes: Mouse IgG2b, kappa; also called 3C antibody
Consider B3, for which the “Absorbance (490 nm)” value with mCRP (31-60) peptide was determined as 0.03 A490; with mCRP (61-90) peptide it was 1.98 A490; with mCRP (121-150) peptide, 0.017 A490; with mCRP (151-180) peptide it was 0.108 A490; with mCRP (181-206) peptide it was 0.006 A490; with mCRP (19) peptide, 0.004 A490. Also, the “Absorbance (490 nm)” value with mCRP (29) peptide is -0.001 A490; with mCRP (39) peptide, 0.001 A490; with mCRP (49) peptide, 0 A490; with mCRP (59) peptide, 0.001 A490; with mCRP (69) peptide it was 0.002 A490; with mCRP (79) peptide it was 0 A490. The “Absorbance (490 nm)” value with mCRP (89) peptide was 0 A490; in the test with mCRP (99) peptide [2], 1.58 A490; with mCRP (109) peptide, -0.001 A490; in the test with mCRP (119) peptide, 0.005 A490; in the test with mCRP (129) peptide, 0.002 A490; in the test with mCRP (139) peptide, 0.002 A490. Further, the “Absorbance (490 nm)” value was 0.001 A490 in the test with mCRP (149) peptide; 0.002 A490 with mCRP (159) peptide; 0.001 A490 with mCRP (169) peptide; 0.003 A490 with mCRP (179) peptide; 0.007 A490 in the test with mCRP (189) peptide; 0.006 A490 with mCRP (199) peptide. Besides, the “Absorbance (490 nm)” value with mCRP (209) peptide stood at 0 A490.
